B1: CPEB3 Ribozyme (parent)
chain: GGGGGCCACAGCAGAAGCGUUCACGUCGCGGCCCCUGUCAGAUUCUGGUGAAUCUGCGAAUUCUGCUGU

In the series the parent is B1. The series can be described thus: self-cleavage, relative activity (ratio to wild type); higher = more cleavage; co-transcriptional.
Take A15U U21C: the self-cleavage is 0.592.

With A15U U21G, the self-cleavage stood at 0.157.

Consider A15G G41U, for which the self-cleavage worked out at 0.891.

With A15U U67A, the self-cleavage stood at 0.889.

As for A15U U67G, the self-cleavage turned out to be 0.87.

Regarding A15C G58C, the self-cleavage was found to be 0.84.

On to A15C U49C, for which the self-cleavage was 0.842.

As to A15C U49G, the self-cleavage came out at 0.858.

In the case of A16C A52U, the self-cleavage amounted to 0.249.

With A16C A52C, the self-cleavage amounted to 0.239.

Consider A15U U53G, for which the self-cleavage was determined as 0.566.

As to A15U U53A, the self-cleavage came out at 0.468.

For the variant A15U U53C, the self-cleavage amounted to 0.413.

With A15G G68C, the self-cleavage was 1.05.

Turning to A15G G68A, the self-cleavage turned out to be 1.02.

For A15U C45G, the self-cleavage is 0.823.

As for A15U C39A, the self-cleavage came to 0.309.

As for A15U C39G, the self-cleavage amounted to 0.622.

A15U G48A: the self-cleavage came to 0.925.

Regarding A16C G19U, the self-cleavage stood at 0.137.

As to A16C G19C, the self-cleavage was determined as 0.0843.

Regarding A16C G19A, the self-cleavage came to 0.132.

In the case of A16C C35A, the self-cleavage came out at 0.071.

Regarding A16C C35U, the self-cleavage stood at 0.17.

For the variant A16C C35G, the self-cleavage is 0.118.

Regarding A15U G17U, the self-cleavage was 0.221.

In the case of A15U G17A, the self-cleavage amounted to 0.159.

With A15U U20A, the self-cleavage came out at 0.106.

On to A15U U20C, for which the self-cleavage came to 0.211.

In the case of A15U U20G, the self-cleavage came to 0.132.

A15C U46A: the self-cleavage was found to be 0.93.

Consider A15C U46C, for which the self-cleavage was 0.88.

Turning to A15U A60C, the self-cleavage came out at 0.298.

With A15U A60G, the self-cleavage was determined as 0.416.

As for A15U C57G, the self-cleavage was 0.259.

As to A15U C57A, the self-cleavage is 0.298.

On to A16C A40U, for which the self-cleavage came out at 0.0836.

As to A16C A40C, the self-cleavage was 0.118.

As for A15U G41C, the self-cleavage amounted to 0.257.

In the case of A15U G41U, the self-cleavage came to 0.378.

Take A15G U43C: the self-cleavage was found to be 1.01.

For A15U G37U, the self-cleavage stood at 0.176.

With A15U G37C, the self-cleavage is 0.179.

For A15U G37A, the self-cleavage is 0.219.

Regarding A15G U62C, the self-cleavage is 0.956.

With A15G U62A, the self-cleavage worked out at 0.906.

Turning to A15C U64G, the self-cleavage came out at 0.91.

In the case of A15C U64C, the self-cleavage was 0.958.

As for A15C U64A, the self-cleavage came out at 0.952.

Turning to A15G G31A, the self-cleavage is 0.874.

On to A15G G31C, for which the self-cleavage stood at 0.204.

Turning to A16C A60G, the self-cleavage is 0.418.

Turning to A16C A60U, the self-cleavage turned out to be 0.103.

As for A15G C33A, the self-cleavage turned out to be 0.798.

In the case of A15G C33U, the self-cleavage turned out to be 0.999.

In the case of A15G C33G, the self-cleavage is 0.534.

For the variant A15G G58C, the self-cleavage came out at 1.01.

On to A15G G58U, for which the self-cleavage came out at 0.978.

In the case of A16C A42C, the self-cleavage amounted to 0.245.

For the variant A16C A42U, the self-cleavage was determined as 0.102.

As for A15G U53G, the self-cleavage was 0.958.

A15G U53C: the self-cleavage stood at 0.859.

In the case of A15U C54U, the self-cleavage stood at 0.845.

Take A15U C54A: the self-cleavage was found to be 0.468.

Take A15U C54G: the self-cleavage stood at 0.412.

Consider A16C C39A, for which the self-cleavage was 0.108.

For A15G C39A, the self-cleavage was found to be 0.833.

Consider A15G U20G, for which the self-cleavage amounted to 0.161.

On to A15G U20A, for which the self-cleavage was determined as 0.092.

Turning to A15U U55C, the self-cleavage is 0.418.

Consider A15U U55A, for which the self-cleavage was 0.412.

Take A15U C18G: the self-cleavage stood at 0.186.

Turning to A15U C18A, the self-cleavage came out at 0.122.

Take A15U C18U: the self-cleavage was found to be 0.338.

For A15U G25U, the self-cleavage came out at 0.148.

On to A15U C32A, for which the self-cleavage came out at 0.285.

As for A15U C32G, the self-cleavage is 0.247.

Turning to A15C G65A, the self-cleavage came out at 0.43.

For the variant A15U G47U, the self-cleavage was 0.919.

As for A15U G47A, the self-cleavage worked out at 0.95.

As for A15U G47C, the self-cleavage is 0.989.

In the case of A15G C57G, the self-cleavage came out at 0.259.

Regarding A15G C57A, the self-cleavage came out at 0.45.

As for A16C A51C, the self-cleavage came out at 0.217.

Turning to A16C A51G, the self-cleavage amounted to 0.33.

For A16C A51U, the self-cleavage is 0.239.

On to A15G G56C, for which the self-cleavage is 0.785.

Regarding A15G G56U, the self-cleavage was found to be 0.985.

For A15G G56A, the self-cleavage worked out at 0.944.

For A15G A40G, the self-cleavage was found to be 0.996.

For A15G A52C, the self-cleavage worked out at 0.949.

In the case of A15U G65C, the self-cleavage came to 0.433.

Consider A15U U26G, for which the self-cleavage is 0.424.

A15U U26C: the self-cleavage was 0.634.

Turning to A15U U26A, the self-cleavage was 0.34.

Consider A15U U49A, for which the self-cleavage is 0.931.

Take A15U U49C: the self-cleavage came out at 0.817.

Turning to A15U U49G, the self-cleavage worked out at 0.884.

With A16C C66G, the self-cleavage turned out to be 0.198.

For the variant A16C C66A, the self-cleavage is 0.18.

Take A15G U67A: the self-cleavage stood at 0.971.

As for A15G U67G, the self-cleavage worked out at 0.996.

A15G U67C: the self-cleavage was 0.943.

Turning to A16C, the self-cleavage stood at 0.373.

On to A15G C32A, for which the self-cleavage came out at 0.816.

In the case of A15G C32U, the self-cleavage amounted to 1.02.

In the case of A15U A23G, the self-cleavage was 0.658.

For A15U A23U, the self-cleavage worked out at 0.95.

With A15U A23C, the self-cleavage is 0.723.

As to A15G G47A, the self-cleavage worked out at 0.971.

A15G A23G: the self-cleavage amounted to 0.959.

Turning to A15G A23U, the self-cleavage was 1.04.

Take A16C G37C: the self-cleavage stood at 0.176.

A16C G37A: the self-cleavage worked out at 0.0923.

As to A16C G37U, the self-cleavage is 0.0859.

Consider A15U G56C, for which the self-cleavage was found to be 0.402.

Take A15U G56A: the self-cleavage was determined as 0.648.

As to A15U A51G, the self-cleavage was found to be 0.916.

A15U A51C: the self-cleavage came out at 0.79.

Consider A15G A42C, for which the self-cleavage was 0.789.

As for A15G A42G, the self-cleavage turned out to be 0.928.

On to A15G G37U, for which the self-cleavage was determined as 0.286.

A15G G37A: the self-cleavage turned out to be 0.27.

A15C U53A: the self-cleavage was found to be 0.651.

On to A15G G50A, for which the self-cleavage turned out to be 0.973.

As to A16C G25A, the self-cleavage amounted to 0.139.

A16C G25U: the self-cleavage was found to be 0.103.

A15G C45U: the self-cleavage stood at 1.02.

Regarding A15G C45G, the self-cleavage was found to be 0.965.

With A15G C45A, the self-cleavage was found to be 1.

Take A15G C29A: the self-cleavage was 0.636.

On to A15G C29G, for which the self-cleavage was found to be 0.458.

In the case of A15G U26C, the self-cleavage turned out to be 1.03.

Consider A15G U26A, for which the self-cleavage is 0.905.

On to A15G U26G, for which the self-cleavage amounted to 0.953.

For the variant A15G U55A, the self-cleavage is 0.892.

With A15G U55C, the self-cleavage stood at 0.869.

Consider A15G U55G, for which the self-cleavage worked out at 0.85.

For A15U C22G, the self-cleavage was 0.126.

For the variant A15U C22U, the self-cleavage came to 0.107.

For the variant A15U C22A, the self-cleavage amounted to 0.225.

In the case of A15G U36G, the self-cleavage came to 0.152.

A15G U36A: the self-cleavage stood at 0.203.

Consider A15G U36C, for which the self-cleavage is 0.966.

As for A15G U64G, the self-cleavage turned out to be 0.918.

A15G G19U: the self-cleavage was 0.439.

For the variant A15G G19C, the self-cleavage was determined as 0.15.

With A15G G19A, the self-cleavage was determined as 0.216.

With A15G C63G, the self-cleavage was 0.674.

Consider A15G C63U, for which the self-cleavage is 0.947.

With A15G C63A, the self-cleavage is 0.799.

In the case of A15U C33U, the self-cleavage stood at 0.912.

For the variant A15U C33A, the self-cleavage was 0.493.

As for A15U C66G, the self-cleavage was determined as 0.516.

Turning to A15U C66A, the self-cleavage came to 0.324.

As for A15U C66U, the self-cleavage is 0.643.

As to A16C C24G, the self-cleavage was 0.171.

With A15U G30C, the self-cleavage was found to be 0.287.

With A15U G30U, the self-cleavage was determined as 0.184.

With A15U G30A, the self-cleavage came out at 0.361.

Take A15U G68C: the self-cleavage stood at 0.929.

As for A15G C34G, the self-cleavage is 0.665.

Regarding A15G C34U, the self-cleavage worked out at 1.01.

For the variant A15G C34A, the self-cleavage is 0.764.

Take A16C C54U: the self-cleavage worked out at 0.313.

Turning to A16C C54G, the self-cleavage was 0.152.

As to A16C C54A, the self-cleavage came to 0.256.
